Tests used:
[1] = Gelation kinetics of pH adjusted peptides, time sweep with DMEM added; type: physicochemical
Protocol: The effect of pH level on the properties of gelation kinetics was evaluated to identify optimized pH levels for the peptides as described herein. Fast gelation kinetics of PuraMatrix® and other peptides within body fluid may generally improve its function and response time for various clinical applications. The pH level may impart response time to begin gelation when treated with simulated body fluid including but not limited to DMEM. […] A fast response time of PuraMatrix® and other peptides within body fluid may generally improve its function and response time for various clinical applications.
(§1) Time sweep tests were performed at 1 rad/sec and at 1 Pa with 20 mm plates and 500 μm gap distance. During time sweep test of PuraMatrix® 2.5% solution, DMEM was added into the chamber surrounding the measuring plates to soak PuraMatrix® solution at 0 time point. The results are shown in FIG. 9A for PuraMatrix® 2.5% solution.
as §1, with “IEIK13 1.5%” for “PuraMatrix® 2.5%”, “IEIK13 1.5%” for “PuraMatrix®”, “point and continuously data was recorded.” for “point.”, “9B” for “9A”

[2] = Rheological comparison of peptide hydrogels mixed with Ringer's Solution or indigo carmine; type: physicochemical
Text: The two gels were: (1) a combination of the self-assembling peptide with a well-known cation/anion solution, Ringer's Solution (pH 5.3), used in the medical field and (2) a combination of the self-assembling peptide with a well-known contrast agent, indigo carmine, which is a dye solution containing sulfate (anion) and sodium (cation) ions. Indigo carmine contains indigoindisulfonate sodium (C16H8N2Na2O8S2), water, and sodium citrate […] for pH adjustment. Using indigo carmine powder, a 1% solution was prepared for use in experimentation. This corresponds to 10 mg/1 ml of water. The concentration of indigo carmine solution used in experimentation was 0.00585% in water.
Indigo carmine powder was used to prepare a 1% solution in deionized (DI) water. Using IEIK13 powder, a 2 percent solution was prepared using DI water. The amount of IEIK was weighed out and the appropriate amount of DI water was added gently down the side of the container. Mixing was accomplished by vortexing for about 30 seconds, and then sonicating for 30 seconds. The solution was then centrifuged for about 10 to about 15 minutes at […]. The solution may undergo further vortexing and centrifuging until the solution is clear and without bubbles.
To obtain a final concentration of 0.00585% indigo carmine, the necessary amount of 1% IC is added to the appropriate amount of DI water to dilute 2% IEIK to 1.5% IEIK. […]

[3] = test system: pleural defects in swine lungs; assay: Burst pressure of peptide hydrogels as air sealants on pleural defects of swine lungs; conditions: for ranking of burst pressures: 16 G pleural defects, 2.5% RADA16+0.25 M CaCl2 and 1.5% IEIK13
Text: Swine lungs were obtained from freshly euthanized pigs. An endotracheal tube was inserted through the trachea and primary bronchus into the lung of interest. Pressure was supplied to the lungs with the use of a manual endotracheal intubation pump. The trachea was tied off to prevent air leakage around the tube. The primary bronchus of the other lung was clamped to direct all airflow to the lung of interest. A manometer was used to measure the pressure of air directed into the lungs to induce expansion.
The self-assembling peptide hydrogels were comprised of Ac-RADARADARADARADA-NH2 (i.e. RADA16) (SEQ ID NO: 1), Ac-KLDLKLDLKLDL-NH2 (i.e. KLD12) (SEQ ID NO: 3), or Ac-IEIKIEIKIEIKI-NH2 (i.e. IEIK13) (SEQ ID NO: 2) with either RADA16 or KLD12 alone or mixed with 0.250 M calcium chloride. If alone, the peptides were reconstituted in deionized water. If, however the peptides were reconstituted with 0.250 M calcium chloride solution, the peptides were reconstituted first in deionized water, and subsequently, a 0.500 M solution of calcium chloride was mixed in at a 1:1 ratio.
The pleural defects were created using three different methods to measure the efficacy of the self-assembling peptide hydrogels: (1) A 16 gauge needle was used to puncture the lung and pleura, (2) A 5×5 mm area was measured and the lung and pleura were clipped using a pair of surgical scissors, and (3) A lobectomy (i.e. a complete resection of one lobe of the lung of interest). A 0.9% saline solution was streamed over the defect area and the location of the defect was identified by using the endotracheal intubation pump system to introduce air and observing the release of air bubbles.
Once the location of the defect was identified, the hydrogels were applied to the defect area via two different methods: (1) the hydrogel was applied topically by injecting through a syringe onto the defect area, and (2) the hydrogel was injected into the defect through an 18 gauge needle with overflow to cover the defect area topically. After a relaxation period of 2 min, pressure was applied through the endotracheal intubation pump until a burst pressure was identified. For any additional tests, airflow to the previously tested defect was cut off using a surgical clamp.

[4] = with pH adjustment, PuraMatrix 2.5%, IEIK13 1.5% solution

Arg-Ala-Asp-Ala-Arg-Ala-Asp-Ala-Arg-Ala-Asp-Ala-Arg-Ala-Asp-Ala [PuraMatrix ®]
storage modulus response after DMEM addition [1, 4]: immediate storage modulus increase | initial time without storage modulus increase after DMEM addition ([1]; without pH adjustment (pH 2.2), 2.5% solution): 13 s | properties of tailored hydrogel ([2]; mixed with Ringer's Solution (pH 5.3)): stiffer gel with faster gelation kinetics that maintains reversibility | effect of increasing exposure time on burst pressure ([3]; 2.5% RADA16, 16 G pleural defect, varying time points): increased the burst pressure | effect of needle gauge of pleural defect on burst pressure ([3]; 2.5% RADA16 applied topically, 14, 16, 18, and 22 gauge needles): negligible changes in burst pressures | effect of topically added NaCl solution on burst pressure ([3]; 2.5% RADA16 topically, 16 G pleural defect, 0.154 M NaCl gently massaged in): slightly increased | ranking of burst pressures [3]: best burst pressures

Ile-Glu-Ile-Lys-Ile-Glu-Ile-Lys-Ile-Glu-Ile-Lys-Ile [IEIK13]
storage modulus response after DMEM addition [1, 4]: immediate storage modulus increase | storage modulus response after DMEM addition ([1]; without pH adjustment, 1.5% solution): immediate storage modulus increase | properties of tailored hydrogel ([2]; 1.5% IEIK mixed with 0.00585% indigo carmine): maintains stiffness, reversibility, and gelation kinetics | ranking of burst pressures [3]: best burst pressures
